Drawing on patent US20250009801A1, this text covers EC50 for one molecule.

Assay [1] has as its target human CLDN18.2 on cells (human) (UniProt P56856). The experiment in a line: flow cytometry on CHO-GS-hCLDN18.2 cells.
The target is the same in assay [2]. The assay can be described thus: flow cytometry on SUN601 (SNU601) cells. Background: A flow cytometer gives signals particle by particle.
The target is the same in assay [3]. The experiment in a line: flow cytometry on DAN-G18.2 cells.

B1: Hz69H9-2.1 PG Ab (antibody, human IgG1, kappa, V domains shown)
VH: QVQLVQSGAEVKKPGSSVKVSCKASGYSFSSYNIHWVRQAPGQGLEWMGYIAPFQGDARYNQKFKGRVTITADKSTSTAYMELSSLRSEDTAVYYCARLNRGNALDYWGQGTLVTVSS
VL: DIVMTQSPDSLAVSLGERATINCKSSQSLFQSGNQRNYLTWYQQKPGQPPKLLIYWASTRESGVPDRFSGSGSGTDFTLTISSLQAEDVAVYYCQNNYIYPLTFGGGTKVEIKR
B1: the EC50 in assay [1] came out at 8.21 nM; in assay [2] it was 261 nM; in assay [3] it was 6.95 nM.

The term EC50 denotes the concentration at which the effect is half-maximal. A high value points to lower potency in that assay.
